Laboratory results from US10370436B2, “Anti-pseudomonas Psl binding molecules and uses thereof” (priority 2011, dated 2019).

Legend:
[1] = tested on: P. aeruginosa PAO1.lux association with A549 cells; experiment: Cell attachment assay, PAO1.lux to A549 cells; assay type: cell-based, Pseudomonas aeruginosa; conditions: MOI of 10, FIG. 4, FIG. 9B
Method: Anti-Psl antibodies were added to a confluent monolayer of A549 cells (an adenocarcinoma human alveolar basal epithelial cell line) grown in opaque 96-well plates (Nunc Nunclon Delta). Log-phase luminescent P. aeruginosa PAO1 strain (PAO1.lux) was added at an MOI of 10. After incubation of PAO1.lux with A549 cells at 37° C. for 1 hour, the A549 cells were washed, followed by addition of LB+0.5% glucose. Bacteria were quantified following a brief incubation at 37° C. as performed in the OPK assay described in Example 2. Measurements from wells without A549 cells were used to correct for non-specific binding.

[2] = tested on: P. aeruginosa 6077 (O11-cytotoxic); experiment: P. aeruginosa corneal infection (keratitis) model; assay type: in vivo, mice; conditions: versus negative control-treated animals, 24 hours after infection
Method: FIG. 8 (A-G): Anti-Psl monoclonal antibodies Cam-003 and WapR-004 are active in a P. aeruginosa keratitis model and thermal injury model. Mice were treated with a control IgG1 antibody or Cam-003 at 45 mg/kg (A, B) or 15 mg/kg (C, D) or PBS or a control IgG1 antibody or Cam-003 at 45 mg/kg or WapR-004 at 45 mg/kg or 15 mg/kg or 5 mg/kg (F, G) 24 hours prior to infection with 6077 (O11-cytotoxic—2×10^6 CFU). Immediately before infection, three 1 mm scratches were made on the left cornea of each animal followed by topical application of P. aeruginosa in a 5 μl inoculum. 24 hours after infection, the corneal pathology scores were calculated followed by removal of the eye for determination of viable CFU. Differences in pathology scores and viable CFU were determined by the Mann-Whitney U-test. (A) P=0.0001, (B) P<0.0001, (C) P=0.0003, (D) P=0.0015. (F) and (G) Cam-003 (45 mg/kg) vs. WapR-004 (45 mg/kg): P=0.018; Cam-003 (45 mg/kg) vs. WapR-004 (15 mg/kg): P=0.0025; WapR-004 (45 mg/kg) vs. WapR-004 (15 mg/kg): P=0.1331; WapR-004 (5 mg/kg) vs. Ctrl: P<0.0001. Results are representative of five independent experiments. (E) Survival analysis from Cam-003 and R347 treated CF-1 mice in a P. aeruginosa thermal injury model after 6077 infection (2×10^5 CFU) (log-rank: R347 vs. Cam-003 15 mg/kg, P=0.0094; R347 vs. Cam-003 5 mg/kg, P=0.0017). […]

B1: WapR-004: anti-Psl antibody, VH SEQ ID NO: 11 and VL SEQ ID NO: 12 (antibody, V domains shown)
VH: EVQLLESGPGLVKPSETLSLTCNVAGGSISPYYWTWIRQPPGKGLELIGYIHSSGYTDYNPSLKSRVTISGDTSKKQFSLHVSSVTAADTAVYFCARGDWDLLHALDIWGQGTLVTVSS
VL: EIVLTQSPSSLSTSVGDRVTITCRASQSIRSHLNWYQQKPGKAPKLLIYGASNLQSGVPSRFSGSGSGTDFTLTISSLQPEDFATYYCQQSYSFPLTFGGGTKLEIK
modifications: WapR-004 VH; WapR-004 & WarR-004RAD VL
B1 was tested, and the “inhibition of association of PAO1.lux to A549 cells” value [1] was “most active at inhibiting P. aeruginosa cell attachment to A549 lung epithelial cells”, the “bacterial counts in total eye homogenates” value [2] was “reduced bacterial counts” and the corneal pathology ([2]; FIGS. 8A-D, F-G) was “significantly less pathology”.
